Values quoted from earlier work in paper PMC3565385 (Journal of computer-aided molecular design, 2012).

System: PTH1R
Settings: ΔΔG = RT ln(Ki mutant/Ki wild-type) from published alanine scanning

B1: PTH R20A: parathyroid hormone with Arg20 replaced by alanine (peptide, UniProt P01270 32-115, looked up, variant R20A)
Parathyroid hormone: SVSEIQLMHNLGKHLNSMEAVEWLRKKLQDVHNFVALGAPLAPRDAGSQRPRKKEDNVLVESHEKSLGEADKADVNVLTKAKSQ
modifications: Parathyroid hormone
experimental ΔΔG: 2.96 kcal/mol
